Test results from paper PMC9719739.

Molecular target: CaV1.2 C-terminal domain, residues 1520-1669 (two channel EF-hand motifs, pre-IQ and IQ-motif) (rabbit) (UniProt P15381)
Assay: SEC

Sequence of UniProt P15381 (P15381 1520-1669): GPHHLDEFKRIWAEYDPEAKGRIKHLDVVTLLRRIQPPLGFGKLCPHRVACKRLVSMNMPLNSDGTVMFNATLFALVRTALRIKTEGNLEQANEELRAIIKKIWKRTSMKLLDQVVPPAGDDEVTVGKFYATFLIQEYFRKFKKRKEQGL

In the case of “Calmodulin (from UniProt P0DP23 1-149) (natural protein)”, the stoichiometry N (CaM per CT(1520-1669) (4:4)) is reported as 1.
